Patent US10718784B2, “Mitochondrial preproteins as markers for Alzheimer's disease” (Albert-Ludwigs-Universität Freiburg, priority 2014, dated 2020)

Experiments:
[1] = biological target: T1, Cym1 (Saccharomyces cerevisiae, UniProt P32898); assay: Peptide degradation assay in soluble mitochondrial extracts; format: biochemical, yeast
T1 construct: endogenous in cells; host or cells: soluble extract of wild-type S. cerevisiae mitochondria (cym1Δ extract as control)
T1 sequence (P32898 17-989): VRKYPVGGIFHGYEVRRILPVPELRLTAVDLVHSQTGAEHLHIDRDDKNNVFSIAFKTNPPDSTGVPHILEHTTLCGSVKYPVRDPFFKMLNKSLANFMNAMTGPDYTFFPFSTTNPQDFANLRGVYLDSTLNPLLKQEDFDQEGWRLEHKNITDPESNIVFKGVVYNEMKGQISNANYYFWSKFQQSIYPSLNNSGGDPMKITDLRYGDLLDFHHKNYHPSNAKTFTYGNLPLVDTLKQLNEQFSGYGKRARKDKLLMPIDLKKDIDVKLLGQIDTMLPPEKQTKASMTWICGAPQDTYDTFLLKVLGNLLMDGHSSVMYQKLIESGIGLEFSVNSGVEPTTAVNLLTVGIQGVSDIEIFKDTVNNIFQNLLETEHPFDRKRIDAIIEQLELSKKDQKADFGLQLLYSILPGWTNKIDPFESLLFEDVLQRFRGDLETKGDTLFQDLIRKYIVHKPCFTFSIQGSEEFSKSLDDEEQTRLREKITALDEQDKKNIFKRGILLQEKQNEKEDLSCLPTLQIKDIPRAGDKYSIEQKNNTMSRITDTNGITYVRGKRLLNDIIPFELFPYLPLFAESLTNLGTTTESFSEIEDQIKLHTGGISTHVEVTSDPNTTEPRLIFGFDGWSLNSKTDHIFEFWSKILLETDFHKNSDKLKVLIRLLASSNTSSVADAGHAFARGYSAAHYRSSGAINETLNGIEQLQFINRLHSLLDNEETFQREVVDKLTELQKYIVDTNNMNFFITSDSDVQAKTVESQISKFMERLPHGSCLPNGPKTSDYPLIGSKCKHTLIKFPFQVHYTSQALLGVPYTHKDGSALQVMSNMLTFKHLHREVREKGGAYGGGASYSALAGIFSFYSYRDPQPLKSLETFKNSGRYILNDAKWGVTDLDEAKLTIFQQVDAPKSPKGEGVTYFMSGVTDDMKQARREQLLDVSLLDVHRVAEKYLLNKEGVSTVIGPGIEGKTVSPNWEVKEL
Procedure: (§1) Isolated mitochondria from yeast strains grown under respiratory conditions were washed with SEM buffer, re-isolated and resuspended in reaction buffer (250 mM sucrose, 10 mM MOPS/KOH, pH 7.2, 80 mM KCl, 5 mM MgCl2, 5 mM KH2PO4) to a concentration of 3 μg/μl. Mitochondria were subjected to sonication (five times 30 s with 30 s breaks on ice, Sonifier250, Branson) followed by centrifugation at 100,000×g for 45 min at 4° C. The obtained supernatant was used for processing and degradation experiments. 0.5 μl of radiolabelled precursor protein and/or various peptides in different concentrations were added to 9 μl of yeast soluble mitochondrial extracts. Reactions were stopped by addition of 4× Laemmli buffer (8% (w/v) SDS, 0.08% (w/v) bromophenol blue, 40% (v/v) glycerol, 240 mM Tris/HCl, pH 6.8) containing 5% (v/v) β-mercaptoethanol and analyzed by SDS-PAGE followed by autoradiography and immunodecoration. Radiolabelled precursor proteins were synthesized with the transcription/translation rabbit reticulate lysate system (Promega) in the presence of ^35S-methionine. Chemical amounts of Cym1 and control protein (Oct1) were synthesized in vitro using the RTS wheat germ system (5 PRIME). 0.5 μl of cell-free translation product was used in the processing assays.

[2] = biological target: T2, Purified yeast MPP (Saccharomyces cerevisiae, UniProt P10507+P11914); assay: MPP activity assay: processing of [35S]F1β precursor by purified MPP; format: biochemical, S. cerevisiae; conditions: radiolabelled F1β precursor, increasing peptide concentrations
T2 construct: poly-histidine (N); made in house; host or cells: E. coli BL21, plasmid pVG18
Procedure: E. coli BL21 cells were transformed with plasmid pVG18 (32) that enables the transcription of a single mRNA encoding both β- (with N-terminal poly-histidine tag) and α-MPP subunits (Mas1 and Mas2) from S. cerevisiae. Cell cultures were grown in LB medium (10 g/l tryptone, 5 g/l yeast extract, 10 g/l NaCl) containing 100 μg/ml ampicillin at 37° C. to an OD600 of 0.6. Expression was induced by addition of 1 mM IPTG (Isopropyl β-D-1-thiogalactopyranoside, Formedium) for 4 h. Cells were harvested and snap-frozen in liquid nitrogen. Pellets were resuspended in binding buffer (20 mM Na3PO4, 200 mM NaCl, 20 mM imidazole, pH 7.4) containing 1 mg/ml lysozyme (Sigma) and 10 μg/ml DNaseI (Sigma) and incubated for 1 h at 4° C. for cell lysis. The cell extract was centrifuged at 4000×g to remove unbroken cells. The supernatant was further centrifuged at 100,000×g for 30 min at 4° C. The obtained supernatant was incubated with Ni-NTA resin (Qiagen) for 3 h at 4° C. The resin was washed four times with binding buffer. Bound proteins were eluted with Elution buffer (20 mM Na3PO4, 200 mM NaCl, 200 mM imidazole, pH 7.4). […]
Purified yeast MPP (0.15 μg protein) was incubated in processing buffer (10 mM HEPES/KOH, pH 7.4, 0.1 mM MnCl2, 1 mM DTT, 0.1 mg/ml BSA) for 15 min at 30° C. […] The samples were analyzed by SDS-PAGE followed by autoradiography. Bands were quantified using the Multi Gauge software (Fuji Film). […]

[3] = biological target: T3, MPP (Saccharomyces cerevisiae, UniProt P10507+P11914); assay: In vitro processing of [35S]Sod2 precursor in yeast soluble mitochondrial extracts; format: biochemical
T3 construct: endogenous in cells; host or cells: soluble extract of mitochondria isolated from S. cerevisiae strains (wild-type, cym1Δ)
T3 sequence (P10507 21-462): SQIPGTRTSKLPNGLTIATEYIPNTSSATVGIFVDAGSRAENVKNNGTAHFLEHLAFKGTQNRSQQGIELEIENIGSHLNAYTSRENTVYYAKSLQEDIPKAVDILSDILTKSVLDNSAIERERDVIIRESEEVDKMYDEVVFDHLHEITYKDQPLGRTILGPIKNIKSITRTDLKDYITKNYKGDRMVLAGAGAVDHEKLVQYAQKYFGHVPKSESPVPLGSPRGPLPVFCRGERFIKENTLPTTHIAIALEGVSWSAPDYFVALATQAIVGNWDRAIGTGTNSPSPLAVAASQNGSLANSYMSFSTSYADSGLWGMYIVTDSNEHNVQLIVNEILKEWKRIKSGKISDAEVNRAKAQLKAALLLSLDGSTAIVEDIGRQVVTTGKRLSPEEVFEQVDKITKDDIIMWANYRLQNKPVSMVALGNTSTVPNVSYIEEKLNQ
T3 sequence (P11914 14-482): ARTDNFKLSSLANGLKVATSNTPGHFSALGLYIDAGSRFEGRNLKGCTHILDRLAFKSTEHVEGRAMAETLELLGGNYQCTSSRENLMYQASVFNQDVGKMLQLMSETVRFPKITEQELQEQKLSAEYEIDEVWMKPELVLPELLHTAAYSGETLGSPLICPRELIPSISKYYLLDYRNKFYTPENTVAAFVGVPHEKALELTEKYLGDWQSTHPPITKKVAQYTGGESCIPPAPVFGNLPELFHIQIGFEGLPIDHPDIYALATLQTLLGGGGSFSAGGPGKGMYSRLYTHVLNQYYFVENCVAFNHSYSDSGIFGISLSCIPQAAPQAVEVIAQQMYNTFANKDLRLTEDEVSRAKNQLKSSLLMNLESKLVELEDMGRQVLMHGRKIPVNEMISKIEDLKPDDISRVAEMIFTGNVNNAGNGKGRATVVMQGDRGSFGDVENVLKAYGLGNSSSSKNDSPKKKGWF
Procedure: as §1

[4] = biological target: T4, Oct1 (Saccharomyces cerevisiae, UniProt P35999); assay: In vitro processing of [35S]Cox4 precursor in yeast mitochondrial extract in the presence of octapeptides; format: biochemical; conditions: cym1Δ mitochondrial extract
T4 construct: endogenous in cells; host or cells: soluble extract of wild-type and cym1Δ S. cerevisiae mitochondria
T4 sequence (P35999 38-772): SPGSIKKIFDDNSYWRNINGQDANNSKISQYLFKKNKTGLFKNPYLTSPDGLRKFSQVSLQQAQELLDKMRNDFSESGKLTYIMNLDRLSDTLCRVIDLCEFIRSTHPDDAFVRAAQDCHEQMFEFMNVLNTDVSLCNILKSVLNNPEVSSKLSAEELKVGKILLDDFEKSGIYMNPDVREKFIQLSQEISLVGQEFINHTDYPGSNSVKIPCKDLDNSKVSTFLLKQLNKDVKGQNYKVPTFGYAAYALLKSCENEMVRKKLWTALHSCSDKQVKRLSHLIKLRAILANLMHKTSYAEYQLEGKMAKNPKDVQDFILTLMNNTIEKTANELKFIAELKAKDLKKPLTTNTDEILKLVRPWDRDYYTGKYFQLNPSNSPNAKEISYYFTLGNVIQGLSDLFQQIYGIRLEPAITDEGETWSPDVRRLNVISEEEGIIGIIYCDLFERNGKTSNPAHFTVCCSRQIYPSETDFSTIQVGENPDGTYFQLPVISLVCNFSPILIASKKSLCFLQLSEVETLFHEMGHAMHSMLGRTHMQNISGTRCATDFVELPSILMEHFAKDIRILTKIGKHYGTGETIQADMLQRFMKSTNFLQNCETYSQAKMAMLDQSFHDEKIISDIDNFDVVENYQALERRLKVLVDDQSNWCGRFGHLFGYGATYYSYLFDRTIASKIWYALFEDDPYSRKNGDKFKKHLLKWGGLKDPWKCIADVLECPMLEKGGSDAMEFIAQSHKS
Procedure: as §1

“Aβ^scrambled: scrambled Aβ peptide KVKGLIDGDHIGDLVYEFMDSNSAIFREGVGAGHVHVAQVEF (SEQ ID No.: 19)” was tested, and the “Effect on Cox4 presequence peptide degradation” value ([1]; WT soluble mitochondrial extract, 10 μM Cox4 presequence peptide in each reaction) was “not”.

“Cox4^preseq.: typical presequence peptide MLSLRQSIRFFKPATRTLCSSRYLL (SEQ ID No.: 15)” was tested, and the “Processing activity of purified MPP on F1β precursor in the presence of peptide” value [2] was “able to inhibit purified MPP”, the “Degradation of the peptide in wild-type mitochondrial extract” value ([1]; wild-type (WT) extract, peptide 10 μM) was “Rapid degradation” and the “In vitro processing of radiolabelled Sod2 precursor by MPP in the presence of presequence peptide” value ([3]; cym1Δ mitochondrial extract (absence of Cym1), 10 μM Cox4 presequence peptide) was “efficiently blocked”.

For “octapeptides: octapeptide derived from the Oct1 substrate Sdh1, FTSSALVR (SEQ ID No.: 16), EZ Biolab”, the “Processing activity of purified MPP on F1β precursor in the presence of peptide” value [2] was “not affected” and the “Oct1-dependent processing step of Cox4 precursor in the presence of octapeptides” value [4] was “specific impairment of the Oct1-dependent processing step”.

B1: cell-free translated Cym1 protein: yeast PreP homolog Cym1 synthesized in vitro using the RTS wheat germ system (protein)
chain: MLRFQRFASSYAQAQAVRKYPVGGIFHGYEVRRILPVPELRLTAVDLVHSQTGAEHLHIDRDDKNNVFSIAFKTNPPDSTGVPHILEHTTLCGSVKYPVRDPFFKMLNKSLANFMNAMTGPDYTFFPFSTTNPQDFANLRGVYLDSTLNPLLKQEDFDQEGWRLEHKNITDPESNIVFKGVVYNEMKGQISNANYYFWSKFQQSIYPSLNNSGGDPMKITDLRYGDLLDFHHKNYHPSNAKTFTYGNLPLVDTLKQLNEQFSGYGKRARKDKLLMPIDLKKDIDVKLLGQIDTMLPPEKQTKASMTWICGAPQDTYDTFLLKVLGNLLMDGHSSVMYQKLIESGIGLEFSVNSGVEPTTAVNLLTVGIQGVSDIEIFKDTVNNIFQNLLETEHPFDRKRIDAIIEQLELSKKDQKADFGLQLLYSILPGWTNKIDPFESLLFEDVLQRFRGDLETKGDTLFQDLIRKYIVHKPCFTFSIQGSEEFSKSLDDEEQTRLREKITALDEQDKKNIFKRGILLQEKQNEKEDLSCLPTLQIKDIPRAGDKYSIEQKNNTMSRITDTNGITYVRGKRLLNDIIPFELFPYLPLFAESLTNLGTTTESFSEIEDQIKLHTGGISTHVEVTSDPNTTEPRLIFGFDGWSLNSKTDHIFEFWSKILLETDFHKNSDKLKVLIRLLASSNTSSVADAGHAFARGYSAAHYRSSGAINETLNGIEQLQFINRLHSLLDNEETFQREVVDKLTELQKYIVDTNNMNFFITSDSDVQAKTVESQISKFMERLPHGSCLPNGPKTSDYPLIGSKCKHTLIKFPFQVHYTSQALLGVPYTHKDGSALQVMSNMLTFKHLHREVREKGGAYGGGASYSALAGIFSFYSYRDPQPLKSLETFKNSGRYILNDAKWGVTDLDEAKLTIFQQVDAPKSPKGEGVTYFMSGVTDDMKQARREQLLDVSLLDVHRVAEKYLLNKEGVSTVIGPGIEGKTVSPNWEVKEL
In the case of B1, the “MPP processing activity (Sod2 precursor) after addition of Cym1 protein” value ([3]; cym1Δ mitochondrial extract) is reported as “could be restored”.
